# B1: Frizzled-4 (Homo sapiens), Q9ULV1 (parent)
# chain: MAWRGAGPSVPGAPGGVGLSLGLLLQLLLLLGPARGFGDEEERRCDPIRISMCQNLGYNVTKMPNLVGHELQTDAELQLTTFTPLIQYGCSSQLQFFLCSVYVPMCTEKINIPIGPCGGMCLSVKRRCEPVLKEFGFAWPESLNCSKFPPQNDHNHMCMEGPGDEEVPLPHKTPIQPGEECHSVGTNSDQYIWVKRSLNCVLKCGYDAGLYSRSAKEFTDIWMAVWASLCFISTAFTVLTFLIDSSRFSYPERPIIFLSMCYNIYSIAYIVRLTVGRERISCDFEEAAEPVLIQEGLKNTGCAIIFLLMYFFGMASSIWWVILTLTWFLAAGLKWGHEAIEMHSSYFHIAAWAIPAVKTIVILIMRLVDADELTGLCYVGNQNLDALTGFVVAPLFTYLVIGTLFIAAGLVALFKIRSNLQKDGTKTDKLERLMVKIGVFSVLYTVPATCVIACYFYEISNWALFRYSADDSNMAVEMLKIFMSLLVGITSGMWIWSAKTLHTWQKCSNRLVNSGKVKREKRGNGWVKPGKGSETVV
# partner: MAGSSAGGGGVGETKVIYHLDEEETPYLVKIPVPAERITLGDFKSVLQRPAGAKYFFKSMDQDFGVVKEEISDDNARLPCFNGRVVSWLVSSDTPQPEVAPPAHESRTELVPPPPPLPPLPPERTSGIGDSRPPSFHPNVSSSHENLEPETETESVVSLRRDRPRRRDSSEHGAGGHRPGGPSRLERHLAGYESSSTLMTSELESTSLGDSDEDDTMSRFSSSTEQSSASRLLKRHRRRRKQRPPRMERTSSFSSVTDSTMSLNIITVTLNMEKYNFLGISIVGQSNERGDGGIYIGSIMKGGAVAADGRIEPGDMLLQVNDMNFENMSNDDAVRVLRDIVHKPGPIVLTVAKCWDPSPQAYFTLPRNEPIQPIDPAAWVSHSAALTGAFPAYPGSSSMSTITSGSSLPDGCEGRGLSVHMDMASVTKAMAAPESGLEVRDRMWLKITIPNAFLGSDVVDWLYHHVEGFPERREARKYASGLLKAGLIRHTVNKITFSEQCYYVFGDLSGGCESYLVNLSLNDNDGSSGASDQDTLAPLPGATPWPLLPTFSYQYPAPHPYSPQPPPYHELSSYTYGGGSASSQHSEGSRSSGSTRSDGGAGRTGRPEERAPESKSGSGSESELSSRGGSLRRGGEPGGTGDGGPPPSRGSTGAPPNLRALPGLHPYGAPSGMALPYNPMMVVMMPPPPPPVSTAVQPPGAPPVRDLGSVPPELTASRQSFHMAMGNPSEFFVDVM
# B2: Frizzled-4 (Homo sapiens), Q9ULV1 (parent)
# chain: B1 chain
# partner: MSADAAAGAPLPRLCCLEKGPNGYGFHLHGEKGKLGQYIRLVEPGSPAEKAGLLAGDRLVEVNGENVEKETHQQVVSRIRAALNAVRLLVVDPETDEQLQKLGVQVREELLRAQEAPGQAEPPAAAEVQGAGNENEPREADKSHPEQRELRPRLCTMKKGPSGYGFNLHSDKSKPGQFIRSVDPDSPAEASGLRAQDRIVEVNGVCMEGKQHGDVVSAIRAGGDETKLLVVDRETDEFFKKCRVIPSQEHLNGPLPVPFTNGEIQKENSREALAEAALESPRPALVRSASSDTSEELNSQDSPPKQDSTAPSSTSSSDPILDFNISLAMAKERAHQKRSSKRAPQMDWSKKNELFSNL
# Variants of: B1
# Settings: with dvl2_mouse Dvl2, Q60838
row,Variant,effect of a mutation on the interaction
1,V537A,decreasing interaction

# Variants of: B2
# Settings: with nhrf1_human NHERF1, O14745
row,Variant,effect of a mutation on the interaction
1,V537A,decreasing interaction

# Reference: IntAct's records for PubMed 20802536
